Data as given in paper PMC8221199, “Semisynthetic ‘designer’ p53 sheds light on a phosphorylation–acetylation relay†”.

Assays:
p53rec [1] = biological target: T1, p53rec (UniProt P04637 1-393); test: EMSA; 0.4 uM p53 (0.1 uM tetramer), 20 nM DNA; EMSA: 0.4 uM p53 variant (0.1 uM tetramer), 20 nM 32P-DNA, 1 uM unlabelled competitor where used, 20 min at RT, native gel; a p53 369-383 peptide was synthesized for the EMSAs; buffer, salt and pH not in the material; conditions: protein: recombinant; tags: untagged; chain copies: 4; label: 32P
p53rec [2] = biological target: T1, p53rec; test: competition; 1 uM competitor vs 20 nM labelled GADD45; EMSA: 0.4 uM p53 variant (0.1 uM tetramer), 20 nM 32P-DNA, 1 uM unlabelled competitor where used, 20 min at RT, native gel; a p53 369-383 peptide was synthesized for the EMSAs; buffer, salt and pH not in the material; conditions: protein: recombinant; tags: untagged; chain copies: 4; label: none (unlabelled)

T1 sequence (P04637 whole entry): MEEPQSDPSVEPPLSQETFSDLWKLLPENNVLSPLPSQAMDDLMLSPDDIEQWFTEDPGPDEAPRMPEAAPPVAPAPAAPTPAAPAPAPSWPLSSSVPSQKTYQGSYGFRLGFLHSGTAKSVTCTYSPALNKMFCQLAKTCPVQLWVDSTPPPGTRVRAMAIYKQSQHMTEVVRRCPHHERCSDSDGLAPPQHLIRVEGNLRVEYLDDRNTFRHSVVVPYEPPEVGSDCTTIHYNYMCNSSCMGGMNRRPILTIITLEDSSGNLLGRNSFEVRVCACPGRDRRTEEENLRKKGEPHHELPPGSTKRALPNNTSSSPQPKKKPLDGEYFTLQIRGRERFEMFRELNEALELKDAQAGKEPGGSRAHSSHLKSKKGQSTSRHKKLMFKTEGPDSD

Binder	binding result (p53rec [1])	binding result (p53rec [2])
GADD45 target (dsDNA) DNA 1: GTACAGAACATGTCTAAGCATGCTGGGGAC DNA 2: GTCCCCAGCATGCTTAGACATGTTCTGTAC	binds	–
GADD45 unlabelled competitor (dsDNA) DNA 1: GTACAGAACATGTCTAAGCATGCTGGGGAC DNA 2: GTCCCCAGCATGCTTAGACATGTTCTGTAC	–	binds
randomized competitor (dsDNA) DNA 1: CCACCATACCTTCGATTATCGCGCCCACTC DNA 2: GAGTGGGCGCGATAATCGAAGGTATGGTGG	–	no binding
